Assay results as given in patent US20220031822A1 (Janssen / Centocor, published 2022).

T1: human BCMA (B cell maturation antigen) (human, UniProt Q02223 1-184)
T1 construct: whole, on cells; also called hBCMA; TNFRSF17
T1 sequence (looked up): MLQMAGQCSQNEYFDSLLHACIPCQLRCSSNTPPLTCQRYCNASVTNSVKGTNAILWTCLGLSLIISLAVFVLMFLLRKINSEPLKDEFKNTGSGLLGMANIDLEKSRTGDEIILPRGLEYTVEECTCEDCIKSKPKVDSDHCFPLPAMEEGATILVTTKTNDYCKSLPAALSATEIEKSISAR


Biological target: T1, human BCMA (B cell maturation antigen)
Experiment: flow cytometry, FN3 domain titration on HEK293F cells transiently expressing human BCMA, anti-His Alexa-488 detection, PRISM one-site specific binding fit
Design: Bmax: unit not given here
Method: 50 uL secondary antibody in FACS buffer was added to the wells. Anti-His mAb was added at a 1/100 dilution to all of the wells except for the FACS buffer only negative control wells. The plates were incubated on ice for 1 hr. Afterwards, cells were collected and combined from two wells from all four plates to check cell count and viability using Trypan blue on the Vi-Cell system. The cell count was about 67,500/well at 96.6% viability. The cell count of the control cells that were kept on ice for comparison was 1×10⁶/mL at 95.1% viability.
After 1 hr of staining, the plates were spun at 1200 rpm for 5 min at 4° C. to pellet the cells. Buffer was discarded by inverting the plates, and 100 uL FACS buffer were added to the wells. The FACS buffer wash was repeated two more times. The plates were spun at 1200 rpm for 5 min at 4° C. to pellet the cells, and buffer was discarded by inverting the plates.
Cells were resuspended in 30 uL Intellicyt buffer (FACS buffer, 0.1% Pluronic Acid, 1 mM EDTA, SytoX Red Live/Dead Stain at a 1:1000 dilution) and mixed gently by vortexing the plates. The plates were kept on ice and read on an Intellicyt plate reader. Cells were gated in the following order: (a) cells, (b) single cells, (c) viable cells. The Geometric Mean of Alexa 488 channel was calculated, and the percentage of viable single cells was calculated.

Binder | Bmax | Kd [nM]
B03 BCMA-specific FN3 domain (designed binder, Detected with an anti-His mAb, so the protein tested carried a His tag) MLPAPKNLVVSRITEDSARLSWTAPDAAFDSFPIRYIETLIWGEAIWLDVPGSERSYDLTGLKPGTEYTVVIDGVKGGGRSQPLVATFTT | 60900 | 8.7
A08 BCMA-specific FN3 domain (designed binder, Detected with an anti-His mAb, so the protein tested carried a His tag) MLPAPKNLVVSRITEDSARLSWTAPDAAFDSFPIRYIETLIWGEAIWLDVPGSERSYDLTGLKPGTEYAVVITGVKGGRFSSPLVASFTT | 101000 | 3000
E09 BCMA-specific FN3 domain (designed binder, Detected with an anti-His mAb, so the protein tested carried a His tag) MLPAPKNLVVSRVTEDSARLSWTAPDAAFDSFRIRYVEVIAWGEAIWLVVPGSERSYDLTGLKPGTEYVVVIDGVKGGKTSIPLIAHFTT | 73600 | 130
F01 BCMA-specific FN3 domain (designed binder, Detected with an anti-His mAb, so the protein tested carried a His tag) MLPAPKNLVVSRVTEDSARLSWTAPDAAFDSFIIVYRENIETGEAIVLTVPGSERSYDLTGLKPGTEYYVQIAGVKGGNISFPLSAIFTT | 51600 | 520
G10 BCMA-specific FN3 domain (designed binder, Detected with an anti-His mAb, so the protein tested carried a His tag) MLPAPKNLVVSRVTEDSARLSWIAPDAAFDSFIIVYRENIETGEAIVLTVPGSERSYDLTGLKPGTEYYVQIAGVKGGNISFPLSAIFTT | 72600 | 76
D08 BCMA-specific FN3 domain (designed binder, Detected with an anti-His mAb, so the protein tested carried a His tag) MLPAPKNLVVSHVTEDSARLSWTAPDAAFDSFIIVYRENIETGEAIVLTVPGSERSYDLTDLKPGTEYYVQIAGVKGGNISFPLSAIFTT | 61200 | 230

Further binders by falling Kd, results first:

Bmax | Kd [nM] | Binder
57900 | 23 | C08 BCMA-specific FN3 domain (designed binder, Detected with an anti-His mAb, so the protein tested carried a His tag) MLPAPKNLVVSRITEDSARLSWTAPDAAFDSFPIRYIETLIWGEAIWLYVPGSERSYDLTGLKPGTEYTVVISGVKGGESSYPLIAAFTT
51400 | 22 | A12 BCMA-specific FN3 domain (designed binder, Detected with an anti-His mAb, so the protein tested carried a His tag) MLPAPKNLVVSRITEDSARLSWTAPDAAFDSFTIKYIERATWGEAIWLNVPGSERSYDLTGLKPGTEYVVLINGVKGGPESWPLIAHFTT
56700 | 6.5 | E02 BCMA-specific FN3 domain (designed binder, Detected with an anti-His mAb, so the protein tested carried a His tag) MLPAPKNLVVSRVTEDSARLSWTAPDAAFDSFVIVYSEPDVCGEAIVLTVPGSERSYDLTGLKPGTEYWVRIAGVKGGDFSRPLSAIFTT
57800 | 4.9 | D10 BCMA-specific FN3 domain (designed binder, Detected with an anti-His mAb, so the protein tested carried a His tag) MLPAPKNLVVSRITEDSARLSWTAPDAAFDSFPIRYIETLIWGEAIWLYVPGSERSYDLTGLKPGTEYTVVIDGVKGGGRSQPLVASFTT
58200 | 4.2 | F11 BCMA-specific FN3 domain (designed binder, Detected with an anti-His mAb, so the protein tested carried a His tag) MLPAPKNLVVSRVTEDSARLSWTAPDAAFDSFPIRYIETLIWGEAIWLDVPGSERSYDLTGLKPGTEYVVVIDGVKGGDHSKPLVATFTT
60700 | 1.6 | G11 BCMA-specific FN3 domain (designed binder, Detected with an anti-His mAb, so the protein tested carried a His tag) MLPAPKNLVVSRITEDSARLSWTAPDAAFDSFWIRYVERLVWGEAIHLHVPGSERSYDLTGLKPGTEYVVVISGVKGGWESTPLVAPFTT
